The record followed here is patent US20160223529A1 (UNIVERSITY OF QUEENSLAND, published 2016).

One experiment has as its target Calmodulin (Homo sapiens (Human), UniProt P0DP23 4-149). Description: Protease activation assay: TVMV activity on a fluorogenic substrate at different calmodulin concentrations (FIG. 3).
The next experiment has as its target T1, TVMV-AI-ePDZ-Binder.
T1 chain: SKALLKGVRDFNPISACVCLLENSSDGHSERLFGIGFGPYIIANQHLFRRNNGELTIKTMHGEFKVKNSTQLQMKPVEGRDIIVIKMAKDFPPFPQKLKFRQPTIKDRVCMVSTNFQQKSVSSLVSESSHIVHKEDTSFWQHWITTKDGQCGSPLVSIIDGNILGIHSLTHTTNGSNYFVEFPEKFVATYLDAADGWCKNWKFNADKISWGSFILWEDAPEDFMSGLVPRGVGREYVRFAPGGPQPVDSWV
Briefly: Protease activation assay: TVMV activity on a fluorogenic substrate (FIG. 5).

B1: TVMV-AI-CalmodulinBinder (enzyme)
chain: SKALLKGVRDFNPISACVCLLENSSDGHSERLFGIGFGPYIIANQHLFRRNNGELTIKTMHGEFKVKNSTQLQMKPVEGRDIIVIKMAKDFPPFPQKLKFRQPTIKDRVCMVSTNFQQKSVSSLVSESSHIVHKEDTSFWQHWITTKDGQCGSPLVSIIDGNILGIHSLTHTTNGSNYFVEFPEKFVATYLDAADGWCKNWKFNADKISWGSFILWEDAPEDFMSGLVPRGVGREYVRFAPRWKKNFIAVSAANRFKKISSSGAL
notes: also called TVMV based calmodulin sensor
As to B1, in the experiment with Calmodulin, the binding result is reported as “binds”.

B2: ePDZ (designed binder)
chain: SGTSPELGFSISGGVGGRGNPFRPDDDGIFVTRVQPEGPASKLLQPGDKIIQANGYSFINIEHGQAVSLLKTFQNTVELIIVREVGNGAKQEIRVRVEKDGGSGGVSSVPTNLEVVAATPTSLLISWDASYYGVSYYRITYGETGGNSPVQEFTVPYSSSTATISGLKPGVDYTITVYAYSDYYGSHHYSPISINYRTSGC
B2: the binding result with TVMV-AI-ePDZ-Binder is “binds”.
